Assay results reported in patent publication US20140341881A1 (DERMADIS, published 2014).
Residue numbers refer to the chain shown, from its start.

Legend:
[1] = molecular target: T1, human chymotrypsin (Chtr) (human, UniProt P17538 19-263); experiment: cell-based or functional assay
[2] = molecular target: thrombin; experiment: cell-based or functional assay
[3] = molecular target: T2, urokinase plasminogen activator (uPA) (UniProt P00749 21-431, limits assumed); experiment: cell-based or functional assay
[4] = molecular target: T3, human kallikrein 2 (hK2) (human, UniProt P20151 25-261); experiment: cell-based or functional assay
[5] = molecular target: human kallikrein 6 (hK6) (human, UniProt Q92876 22-244); experiment: cell-based or functional assay
[6] = molecular target: T1, human chymotrypsin (Chtr); experiment: cell-based or functional assay; remark: listed apart in the source
[7] = molecular target: thrombin; experiment: cell-based or functional assay; remark: listed apart in the source
[8] = molecular target: T4, prostate specific antigen (PSA, hK3) (human, UniProt P07288 25-261); experiment: cell-based or functional assay
[9] = molecular target: T5, human kallikrein 5 (hK5) (human, UniProt Q9Y337 67-293, limits assumed); experiment: cell-based or functional assay
T5 sequence (looked up): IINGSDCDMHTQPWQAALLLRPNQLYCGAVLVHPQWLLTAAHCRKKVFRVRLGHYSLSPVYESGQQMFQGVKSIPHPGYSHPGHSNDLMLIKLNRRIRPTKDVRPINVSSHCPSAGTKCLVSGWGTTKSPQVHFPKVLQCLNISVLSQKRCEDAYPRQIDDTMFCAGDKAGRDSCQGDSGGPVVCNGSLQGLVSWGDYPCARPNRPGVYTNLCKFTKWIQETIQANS

[10] = molecular target: T6, human kallikrein 8 (hK8) (human, UniProt O60259 33-260); experiment: cell-based or functional assay
T6 sequence (looked up): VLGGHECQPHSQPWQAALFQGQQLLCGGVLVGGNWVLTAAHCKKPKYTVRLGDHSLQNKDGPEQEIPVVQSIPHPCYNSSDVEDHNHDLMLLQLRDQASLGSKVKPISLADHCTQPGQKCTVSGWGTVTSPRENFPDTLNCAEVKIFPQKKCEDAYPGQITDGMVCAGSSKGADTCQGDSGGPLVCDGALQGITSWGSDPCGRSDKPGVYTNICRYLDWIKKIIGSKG

[11] = molecular target: T7, human kallikrein 13 (hK13) (human, UniProt Q9UKR3 26-277, limits assumed); experiment: cell-based or functional assay
T7 sequence (looked up): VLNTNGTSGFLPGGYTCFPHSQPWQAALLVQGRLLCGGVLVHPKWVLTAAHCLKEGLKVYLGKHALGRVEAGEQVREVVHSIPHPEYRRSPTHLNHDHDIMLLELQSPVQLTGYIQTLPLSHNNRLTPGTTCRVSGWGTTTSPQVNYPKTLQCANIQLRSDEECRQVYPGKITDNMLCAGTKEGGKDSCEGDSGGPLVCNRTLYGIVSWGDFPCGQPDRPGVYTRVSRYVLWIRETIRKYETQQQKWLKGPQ

[12] = molecular target: T1, human chymotrypsin (Chtr); experiment: residual enzyme activity against [I]o/[E]o, fluorogenic substrate
Protocol: The stoichiometry of inhibition (SI) values were determined for the inhibition of rACTWT and its variants with hK2 and different other enzymes. An initial test was made with a molar excess of rACT (100 fold) over hK2, PSA, hK1, chymotrypsin (Chtr), plasma kallikrein (PK), urokinase (uPA) and human neutrophile elastase (HNE) enzymes. The reaction was carried out for 30 min at 25° C. (90 min at 37° C. for PSA) in reaction buffer (50 mM Tris pH 7.5, 150 mM NaCl, 0,05% Triton X-100, 0.01% BSA) and residual enzyme activity was measured by adding fluorescent substrates (Z-Phe-Arg-AMC for hK1, hK2 and PK, Suc-Ala-Ala-Pro-Phe-AMC for Chtr, Z-Gly-Gly-Arg-AMC for uPA, MeOSuc-Ala-Ala-Pro-Val-AMC for HNE, and CFP-TFRSA-YFP (TFRSA SEQ ID NO:137) for PSA). Activity of enzyme in presence of inhibitors was compared to uninhibited reaction. For reactions where an inhibition was observed, SI was determined by incubating different concentrations of recombinant serpins. Using linear regression analysis of fractional activity (velocity of inhibited enzyme reaction/velocity of uninhibited enzyme reaction) versus the molar ratio of the inhibitor to enzyme ([Iₒ]/[Eₒ]), the stoichiometry of inhibition, corresponding to the abscissa intercept, was obtained.

[13] = molecular target: T3, human kallikrein 2 (hK2); experiment: cell-based or functional assay; remark: listed apart in the source
[14] = molecular target: T1, human chymotrypsin (Chtr); experiment: cell-based or functional assay; remark: listed apart in the source
[15] = molecular target: human kallikrein hK1 (human, UniProt P06870 25-262); experiment: cell-based or functional assay
[16] = molecular target: T4, prostate specific antigen (PSA, hK3); experiment: cell-based or functional assay; remark: listed apart in the source
[17] = molecular target: T2, urokinase plasminogen activator (uPA); experiment: cell-based or functional assay; remark: listed apart in the source
[18] = molecular target: T8, human kallikrein 14 (hK14) (human, UniProt Q9P0G3 25-251, limits assumed); experiment: cell-based or functional assay
T8 sequence (looked up): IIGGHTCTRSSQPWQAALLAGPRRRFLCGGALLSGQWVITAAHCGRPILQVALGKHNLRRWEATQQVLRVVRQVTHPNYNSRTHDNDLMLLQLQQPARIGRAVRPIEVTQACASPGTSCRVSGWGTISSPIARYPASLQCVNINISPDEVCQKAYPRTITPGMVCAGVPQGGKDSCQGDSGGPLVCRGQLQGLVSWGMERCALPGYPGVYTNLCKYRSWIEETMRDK

[19] = molecular target: T9, human plasma kallikrein (PK) (human, UniProt P03952 20-638); experiment: cell-based or functional assay
[20] = molecular target: T10, human neutrophil elastase (HNE) (human, UniProt P08246 30-247, limits assumed); experiment: cell-based or functional assay
T10 sequence (looked up): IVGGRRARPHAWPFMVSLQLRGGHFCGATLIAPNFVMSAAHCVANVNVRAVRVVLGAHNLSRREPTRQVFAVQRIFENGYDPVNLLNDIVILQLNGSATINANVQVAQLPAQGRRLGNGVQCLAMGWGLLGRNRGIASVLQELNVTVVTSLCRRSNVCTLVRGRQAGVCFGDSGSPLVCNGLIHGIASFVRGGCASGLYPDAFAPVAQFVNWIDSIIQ

[21] = molecular target: T8, human kallikrein 14 (hK14); experiment: cell-based or functional assay; remark: listed apart in the source
[22] = molecular target: T9, human plasma kallikrein (PK); experiment: cell-based or functional assay; remark: listed apart in the source
[23] = molecular target: T10, human neutrophil elastase (HNE); experiment: cell-based or functional assay; remark: listed apart in the source
[24] = molecular target: T8, human kallikrein 14 (hK14); experiment: residual hK14 activity after 4 h at 37 C against [I0]/[E0]
Protocol: (§1) SI values of rAAT, rACT, and their variants were determined with hK14 incubating the protease with varying concentrations of inhibitor. After an incubation of 4 hours at 37° C. in reaction buffer (50 mM Tris, pH 7.5, 150 mM NaCl, 0.05% Triton X-100, 0.01% BSA), the residual activity was detected by the addition of fluorescent substrate (Boc-Val-Pro-Arg-AMC). Fluorescence was measured with excitation at 340 nm (±15) and emission at 485 nm (±10) in black 96 well plates using a microplate fluorescence reader FLₓ800 (Bio-Tek Instruments, Inc.). The SI value corresponds to the abscissa intercept of the linear regression analysis of fractional velocity (velocity of inhibited enzyme reaction (vi)/velocity of uninhibited enzyme reaction (v₀)) vs. the molar ratio of the inhibitor to enzyme ([I₀]/[E₀]).

[25] = molecular target: T8, human kallikrein 14 (hK14); experiment: residual hK14 activity against [I0]/[E0]
Protocol: as §1

T1 sequence (P17538 19-263): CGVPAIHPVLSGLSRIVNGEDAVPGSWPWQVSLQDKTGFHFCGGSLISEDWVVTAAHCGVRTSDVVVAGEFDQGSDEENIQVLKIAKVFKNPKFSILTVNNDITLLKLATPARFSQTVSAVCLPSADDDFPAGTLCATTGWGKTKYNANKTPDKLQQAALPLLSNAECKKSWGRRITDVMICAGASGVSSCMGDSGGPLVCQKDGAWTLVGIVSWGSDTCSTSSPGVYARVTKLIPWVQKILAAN
T9 sequence (P03952 20-638 limits assumed): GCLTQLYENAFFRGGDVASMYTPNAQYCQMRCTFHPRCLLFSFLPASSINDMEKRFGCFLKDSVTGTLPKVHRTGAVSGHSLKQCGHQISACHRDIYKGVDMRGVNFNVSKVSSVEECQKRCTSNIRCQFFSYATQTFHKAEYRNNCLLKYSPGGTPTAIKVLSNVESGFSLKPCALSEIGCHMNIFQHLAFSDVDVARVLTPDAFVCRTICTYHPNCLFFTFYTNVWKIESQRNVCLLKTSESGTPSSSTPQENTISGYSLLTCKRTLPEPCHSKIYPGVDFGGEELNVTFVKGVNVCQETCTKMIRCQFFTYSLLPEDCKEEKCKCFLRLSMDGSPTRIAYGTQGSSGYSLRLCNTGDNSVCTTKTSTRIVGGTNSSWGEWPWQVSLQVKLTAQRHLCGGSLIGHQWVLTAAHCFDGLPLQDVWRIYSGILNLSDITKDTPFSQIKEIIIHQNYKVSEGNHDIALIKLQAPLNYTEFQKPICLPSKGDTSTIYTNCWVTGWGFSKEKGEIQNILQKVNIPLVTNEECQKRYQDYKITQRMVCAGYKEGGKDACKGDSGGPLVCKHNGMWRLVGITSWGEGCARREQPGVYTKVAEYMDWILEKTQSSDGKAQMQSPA

B1: rACTWT (recombinant wild type alpha-1-antichymotrypsin) (other, human)
chain: HHHHHHHPNSPLDEENLTQENQDRGTHVDLGLASANVDFAFSLYKQLVLKAPDKNVIFSPLSISTALAFLSLGAHNTTLTEILKGLKFNLTETSEAEIHQSFQHLLRTLNQSSDELQLSMGNAMFVKEQLSLLDRFTEDAKRLYGSEAFATDFQDSAAAKKLINDYVKNGTRGKITDLIKDLDSQTMMVLVNYIFFKAKWEMPFDPQDTHQSRFYLSKKKWVMVPMMSLHHLTIPYFRDEELSCTVVELKYTGNASALFILPDQDKMEEVEAMLLPETLKRWRDSLEFREIGELYLPKFSISRDYNLNDILLQLGIEEAFTSKADLSGITGARNLAVSQVVHKAVLDVFEEGTEASAATAVKITLLSALVETRTIVRFNRPFLMIIVPTDTQNIFFMSKVTNPKQA
notes: also called wild type rACT; wild type ACT
% Inhibition [1]: 100% | % Inhibition [2]: 18% | % Inhibition [3]: 0% | Percentage inhibition [4]: 0% | Percentage inhibition [5]: 24% | Percentage inhibition [6]: 100% | Percentage inhibition [7]: 18% | Percentage inhibition [8]: 100% | Percentage inhibition [9]: 7% | Percentage inhibition [10]: 0% | Percentage inhibition [11]: 0% | SI (stoichiometry of inhibition) [12]: 2 | INHIBITION % [13]: 0% | INHIBITION % [14]: 100% | INHIBITION % [15]: 0% | INHIBITION % [16]: 80% | INHIBITION % [17]: 0%

B2: AATE8 (other, human)
chain: HHHHHHEDPQGDAAQKTDTSHHDQDHPTFNKITPNLAEFAFSLYRQLAHQSNSTNIFFSPVSIATAFAMLSLGTKADTHDEILEGLNFNLTEIPEAQIHEGFQELLRTLNQPDSQLQLTTGNGLFLSEGLKLVDKFLEDVKKLYHSEAFTVNFGDTEEAKKQINDYVEKGTQGKIVDLVKELDRDTVFALVNYIFFKGKWERPFEVKDTEEEDFHVDQVTTVKVPMMKRLGMFNIQHCKKLSSWVLLMKYLGNATAIFFLPDEGKLQHLENELTHDIITKFLENEDRRSASLHLPKLSITGTYDLKSVLGQLGITKVFSNGADLSGVTEEAPLKLSKAVHKAVLTIDEKGTEAAGAMFLEALQRAIPPEVKFNKPFVFLMIEQNTKSPLFMGKVVNPTQK
notes: mature; also called rAATE8
% Inhibition [18]: 100% | % Inhibition [1]: 19% | % Inhibition [19]: 100% | % Inhibition [2]: 0% | % Inhibition [3]: 0% | % Inhibition [20]: 0% | Percentage inhibition [4]: 19% | Percentage inhibition [5]: 100% | Percentage inhibition [21]: 100% | Percentage inhibition [6]: 19% | Percentage inhibition [22]: 100% | Percentage inhibition [7]: 0% | Percentage inhibition [8]: 0% | Percentage inhibition [9]: 100% | Percentage inhibition [10]: 36% | Percentage inhibition [23]: 0% | Percentage inhibition [11]: 30% | SI (stoichiometry of inhibition) [24]: 7.4 | SI (stoichiometry of inhibition) [25]: 7.4

B3: AATG9 (other, human)
chain: B2 chain with A361T, L362V, Q363D, R364Y
notes: mature; also called rAATG9
% Inhibition [18]: 100% | % Inhibition [1]: 100% | % Inhibition [19]: 0% | % Inhibition [2]: 0% | % Inhibition [3]: 0% | % Inhibition [20]: 0% | Percentage inhibition [4]: 0% | Percentage inhibition [5]: 0% | Percentage inhibition [21]: 100% | Percentage inhibition [6]: 100% | Percentage inhibition [22]: 0% | Percentage inhibition [7]: 0% | Percentage inhibition [8]: 0% | Percentage inhibition [9]: 30% | Percentage inhibition [10]: 0% | Percentage inhibition [23]: 0% | Percentage inhibition [11]: 0% | SI (stoichiometry of inhibition) [24]: 1.2 | SI (stoichiometry of inhibition) [25]: 1.2
